Laboratory results reported in US20210324351, “STRUCTURE OF THE HUMAN CGAS-DNA COMPLEX AND USES THEREOF” (Presodent and Fellows of Harvard College, published 2021).

Assays:
[1] = target: hcGAS catalytic domain WT (Homo sapiens, UniProt Q8N884 SEQ:1-366); assay: EMSA; gradient dialysis to 50 mM KCl, 4 C; preferentially higher-order oligomers; conditions: tags: untagged (6xHis-SUMO2 removed with SENP2)
Method: (§1) cGAS-DNA complexes were stably assembled using a method adapted from a nucleosome assembly gradient dialysis protocol (Lee and Narlikar (2001) Current protocols in molecular biology Chapter 21, Unit 21.26), and complex formation was measured by electrophoretic mobility shift analysis. Briefly, a concentration gradient of recombinant protein (0.2, 0.4, 2, 10 μM) was incubated with 45 bp dsDNA (2 μM) in a high-salt buffer containing 20 mM HEPES-NaOH pH 7.8, […], 1 mM DTT at 4° C. for 20 min. The reconstitution mixture was then transferred into 8-10 kDa molecular weight cut-off dialysis tubing (Spectrum Labs), and placed into a beaker of the high-salt buffer. The KCl concentration was reduced gradually by slowly replacing high-salt buffer with low-salt buffer (20 mM HEPES-KOH pH 7.5, 50 mM KCl, 1 mM DTT) with a peristaltic pump (Bio-Rad) at a rate of […] for 48 hr at 4° C. After gradient dialysis, reactions were supplemented to 5% glycerol, and subsequently separated on a 2% agarose gel in 0.5×TBE buffer at 4° C. […] Alternatively, where indicated in FIGS. 8A and 8C, cGAS-DNA complexes were assembled by incubating directly in reaction buffer containing 20 mM HEPES-NaOH pH 7.8, […], 1 mM DTT at 4° C. for 20 min and analyzed by electrophoretic mobility shift analysis as indicated above. […]

[2] = target: mcGAS humanized K187/L195 (UniProt Q8C6L5 SEQ:1-361, N172K,R180L); assay: EMSA; gradient dialysis to 50 mM KCl, 4 C; low-MW complex ablated, higher-order oligomers retained; conditions: tags: untagged (6xHis-SUMO2 removed with SENP2)
Sequence of mcGAS humanized K187/L195 (Q8C6L5 147-507 N172K/R180L): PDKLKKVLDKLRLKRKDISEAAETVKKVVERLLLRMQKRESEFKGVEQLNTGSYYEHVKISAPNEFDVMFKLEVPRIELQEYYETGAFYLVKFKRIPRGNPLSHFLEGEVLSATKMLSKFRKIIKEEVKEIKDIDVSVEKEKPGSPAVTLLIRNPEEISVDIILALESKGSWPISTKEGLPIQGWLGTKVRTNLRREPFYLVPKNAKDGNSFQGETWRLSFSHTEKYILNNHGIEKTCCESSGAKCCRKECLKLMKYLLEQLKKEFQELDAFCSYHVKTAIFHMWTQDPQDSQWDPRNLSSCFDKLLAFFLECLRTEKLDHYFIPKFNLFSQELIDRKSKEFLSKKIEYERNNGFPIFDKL
Method: as §1

[3] = target: T1, hcGAS K187N/L195R (hcGAS*) (Homo sapiens, UniProt Q8N884 SEQ:1-366); assay: EMSA; gradient dialysis to 50 mM KCl, 4 C; stable low-MW complex restored, oligomers unaffected; conditions: tags: untagged (6xHis-SUMO2 removed with SENP2); chain copies: 2 (2:2 complex with DNA, stated)
T1 chain: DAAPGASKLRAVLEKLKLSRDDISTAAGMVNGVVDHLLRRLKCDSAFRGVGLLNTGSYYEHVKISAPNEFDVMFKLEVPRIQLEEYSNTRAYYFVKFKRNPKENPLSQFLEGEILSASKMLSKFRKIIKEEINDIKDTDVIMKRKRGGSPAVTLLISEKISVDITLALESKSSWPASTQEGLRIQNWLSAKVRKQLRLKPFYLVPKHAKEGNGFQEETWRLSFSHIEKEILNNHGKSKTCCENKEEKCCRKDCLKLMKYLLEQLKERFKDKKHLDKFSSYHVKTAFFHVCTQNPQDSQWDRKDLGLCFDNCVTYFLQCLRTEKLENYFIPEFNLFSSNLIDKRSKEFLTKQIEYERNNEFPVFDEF
Method: as §1

[4] = target: mcGAS catalytic domain WT (UniProt Q8C6L5 SEQ:1-361); assay: EMSA; gradient dialysis to 50 mM KCl, 4 C; minimal complex plus higher-order oligomers; conditions: tags: untagged (6xHis-SUMO2 removed with SENP2)
Sequence of mcGAS catalytic domain WT (Q8C6L5 147-507): as the sequence (Q8C6L5 147-507 N172K/R180L) above, with K26N, L34R counted along it
Method: as §1

Measured: binding result

B1: 45 bp interferon stimulatory DNA (dsDNA)
DNA 1: TACAGATCTACTAGTGATCTATGACTGATCTGTACATGATCTACA
DNA 2: TGTAGATCATGTACAGATCAGTCATAGATCACTAGTAGATCTGTA
binds: all assays above
